Patent US20210340276A1 (published 2021)
Changes are numbered by the printed parent chain.

B1: P10-1 Fab (Fab, V domains shown)
VH: QVQLVQSGAEVKKPGASVKVSCKASGYTFTNYGLSWVRQAPGQGLEWMGENHPGSGIIYHNEKFRGRVTLTADRSTSTAYMELSSLRSEDTAVYYCARSSGTRGFAYWGQGTLVTVSS
VL: DVVMTQTPLSLSVTPGQPASISCRSSQSIVHSNGNTYLEWYLQKPGQSPQLLIYRVSNRFSGVPDRFSGSGSGTDFTLKISRVEAEDVGVYYCFQGSHGPWTFGQGTKLEIKR
B2: P10-2 Fab (Fab, V domains shown)
VH: B1 VH with A106D
VL: B1 VL
modifications: heavy chain N-terminal glutamine modified into pyroglutamic acid in a great majority of purified antibodies (Example 2)

Biological target: human cancer-specific MUC1 (on breast cancer cell line T-47D cells) (human, UniProt P15941 24-1255, cancer-specific incomplete O-glycosylation (T, Tn, 2,3ST) of the tandem repeat, as described in the background)
Test: Cell ELISA

Binder | Kd
B1 | 0.35 nM
B2 | 0.29 nM
